Experimental data reported in the DeepSol protein solubility set.

Experiment: soluble on expression in E. coli; label from the status in PepcDB or PDB records

Row | Sequence | soluble on expression in E. coli
1 | MIKKQDPLNHPESVDVAIIGAGPAGAVAAALLRQAGQQVLVLERQHFPRFSIGESLLPQSMAYLEQAGMLRAVVEAGFQYKNGAYFVHGDKTAAFDFRDKHSDGWGTTYQVERAAFDQILINCAADQGADVRFGHSVRAVQPGDAPVLEVQTESGDTYTVHARFILDASGFGRVLPRLLNLEAPTGMPLRAALFSHVQDALPAGMTDRNKICIAVHPERRDVWYWMIPLANGRSSVGCVAEASFLDIPEAEREAALRALIRAEPNIASLIGDAPFLMPVRHIGGYAANVEKLHGPGYALLGNAGEFLDPVFSSGVTIALRSADLAVRALLRQLAGETVDWQSVYDVPLRRGIDTFRAFIERWYTGELQDIIFHPQQAPGIRRMISAILAGYAWDETNPFVADPVRRLNTLHEVCRLEAVLEHHHHHH | not soluble
2 | TTVNETTPIAPAKVLPDAQTVTSVRHWTDTLFSFRVTRPQTLRFRSGEFVMIGLLDDNGKPIMRAYSIASPAWDEELEFYSIKVPDGPLTSRLQHIKVGEQIILRPKPVGTLVIDALLPGKRLWFLATGTGIAPFASLMREPEAYEKFDEVIMMHACRTVAELEYGRQLVEALQEDPLIGELVEGKLKYYPTTTREEFHHMGRITDNLASGKVFEDLGIAPMNPETDRAMVCGSLAFNVDVMKVLESYGLREGANSEPREFVVEKAFVGEGI | soluble
3 | MYFPIVALIGRYQDTGLDAPLTALAQMLTQAGRRVLVEAETARNAGVSGYPVADWDEIGRTATLAVVMGGDGTVLGAARHLAPYGVPLIGINHGRLGFITDIPLQDAHDALGRVLEGNYQAEDRMLLQGGVWRGEQQMYSASAVNDVVLNRAGRGGMIEVRVELDGAFMYTQRADGLIIATPTGSTAYSLSANGPILHPGMNAMVLVPVAPQTLSNRPIVIPDSGVLNMTLTAMGRVEIGASVHFDMQTWSDLQPGDRITVQRAPHIIRFVHPEGYSFFSTLRRKLHWNLMPQATDNLELEHHHHHH | not soluble
4 | MANHVSLILPPLSLYIHIPWCVQKCPYCDFNSHTQKGTIPEAEYIQHLLADLSQDLVTYKTAIANRKIHSIFIGGGTPSLFSAEAIAYLLAEIKQRIAFAPKIEITLEANPGTAEAERFICYTEAGINRISMGIQSFEEEKLRKLGRIHDAHEAKQAVYFAKNALISPSRTVGLHSFNLDLMHGLPNQTLEQALADLNTAISLNPPHFSWYQLTIEPNTMFYYRQPTLPDDDELWAIFEQGHQLLTMAGYQQYETSAYAKQGFQCQHNLNYWRFGDYLAIGCGAHGKISYPSGEIYRFSKTKHPKGYMRGDYRDSQQSIQLDDRPFEFFMNRFRLLEPTPKQEFECYTGLDCERVRPTIDWALNKHYISETSTTWQVTQKGKLFLNELLAGFLTLEHHHHHH | not soluble
5 | MGSSHHHHHHGGTGENLYFQGGSGAGIDYSKWDKLCDSGTSSGTEYEGDRDDKGHDDSSRAPQVTRLEYPSRVTLGPNGVQLEQVPPKASASPFPGTCAPPEETDNGSVAVARCPIKEESFHAEYDTGASNASSHATGNTAGRRDDDQERMGATDDDEDLLYESLARNGGREGSHHWWTQTEDTVTVSFLVPWETKGKSVTEFRLYEARSTTALESELLQAHLEITILVRPACLTSPSSGPSASAAPLRIHQVFRYPVKLSEDLIDGCWQLHFMPRRHLRLLVVQLFKEPVGLGMTLWWDRCFVTDTTSVIADTQTIPDRKRRMEATPGSKEKAGQFRKVWADAHEEFRRRAQERKRKIIE | not soluble
6 | GSHMTRETERFPAREFQRDLLDWFARERRDLPWRKDRDPYKVWVSEVMLQQTRVETVIPYFEQFIDRFPTLEALADADEDEVLKAWEGLGYYSRVRNLHAAVKEVKTRYGGKVPDDPDEFSRLKGVGPYTVGAVLSLAYGVPEPAVDGNVMRVLSRLFLVTDDIAKPSTRKRFEQIVREIMAYENPGAFNEALIELGALVCTPRRPSCLLCPVQAYCQAFAEGVAEELPVKMKKTAVKQVPLAVAVLADDEGRVLIRKRDSTGLLANLWEFPSCETDGADGKEKLEQMVGEQYGLQVELTEPIVSFEHAFSHLVWQLTVFPGRLVHGGPVEEPYRLAPEDELKAYAFPVSHQRVWREYKEWASGVRPPP | soluble
7 | MTKQQKGFVTGQPTGALNLSDILDSEELGEYHLMSAAIITGNTVDFSGLGAGPDDPFEIASITKIFTGELLRLQIERGEITESTAVGDVLGERVADSLIRDITVEELANHTSGLPRLGNVGLRPFMATFFDKNPYKDLSADRVISISTTSKLNSRGEFHYSNLGFALLGQVLARNAGLTFDQLLDRDLLAPLNLNNTKLMTPESLAQDAPQGFSTPGKQVEAWEMDGFLPAAGLRSTARDMAVFCQYLFTKGPAPFTWQSLESAPEIVWHNGESFGYSSVLFFNTATTTAIFVAADVATSVFPIGHELLMANSTRQESKLEHHHHHH | not soluble
8 | MAHHHHHHMGLLNTKPCSLIPAKEAFEREKKIYDKAILSFDGVNGYDVYNCSVPFTYDGKTYIFGRVEKKDEWVHSNSILFEKVGENRYRRHPTSITYNLEDPFVVKIHGEMVLGGTHVTKNGGKVSDYRCEFYHGTPLNLKYFSSGPSKMKDIRLVELADGKIGVFTHFRTEGSCLTGFATIDKIEDLTVEVINSAKLINHRPFGDAWGGPSQVYLLSSGLLGCISHHGYLLDQKDDIQLRIYACTSFVFDPATYDVYNFKIIGTKGCFPPCEPKLPHLADCAFVSGIEMRDDGKCNLYSGIGDVAEGCIVIDYPFEGYGKIVSDVAF | soluble
9 | MSKENIVTRENTAVSENAVSEPTVNNDVGASATNSVTHPAFTLNVRPDNIGIITIDVVGDKVNTLKAEFADQIATILQQAHALPKLQGLVIVSGKPDSFIAGADITMIAACRTAHDARVLAQKGQSILAQIAAFPVPVVAAIHGACLGGGLELALACHSRICSLDDKTVLGLPEVQLGLLPGSGGTQRLPRLVGVSKALDMILTGKQIRPRQALKMGLVDDVVPRDILLDVAIQRAKAGWLNRRALPWQERLLSGPLGKALLFRIVRKKTLAKTRGHYPAAERIIDVVRKGLDQGGPSGYEAEARAFGELAMSPQSAALRSLFFATTSLKKETGSAATARAIHRVGVLGGGLMGGGIANVTATRAGLPVRIKDINPQGINQALKYTWDALGKRVRSKRMRPTEQQRQMMLISGSTDYRGFERVDIVVEAVFEDLSLKQQMVADIERFGAAHTIFASNTSSLPISQIAALAQRPEQVIGLHYFSPVDKMPLVEVIPHEKTSEETIATTVALARKQGKTAIVVADRAGFYVNRILAPYINEAARCLLDGEPIESVDNALVDFGFPVGPMMLLDEVGIDVATKIMPILVEQLGPRFAAPPSFDVILKDGRKGRKNGRGFYLYSNPTKNSSPTKNGNSPAKRNSFKWRKNKVKPVDASIYTLLGVTPKAHLGAGVITQRCTMLMLNEAVRCLDESIIRNPRDGDIGAVFGIGFPPFLGGPFRYLDSLGADKVVQALRLLVQQYGERFEPCQRLVTMAEQQQQFYPVDANIDEVTDVAS | not soluble
10 | GSQRVLVEPDAGAGVAVMKFKNPPVNSLSLEFLTELVISLEKLENDKSFRGVILTSDRPGVFSAGLDLTEMCGRSPAHYAGYWKAVQELWLRLYQSNLVLVSAINGACPAGGCLVALTCDYRILADNPRYCIGLNETQLGIIAPFWLKDTLENTIGHRAAERALQLGLLFPPAEALQVGIVDQVVPEEQVQSTALSAIAQWMAIPDHARQLTKAMMRKATASRLVTQRDADVQNFVSFISKDSIQKSLQMYLERLKEEKG | soluble
11 | MKDLLQAQQKLIPDLIDKMYKRFSILTTISKNQPVGRRSLSEHMDMTERVLRSETDMLKKQDLIKVKPTGMEITAEGEQLISQLKGYFDIYADDNRLSEGIKNKFQIKEVHVVPGDADNSQSVKTELGRQAGQLLEGILQEDAIVAVTGGSTMACVSEAIHLLPYNVFFVPARGGLGENVVFQANTIAASMAQQAGGYYTTMYVPDNVSETTYNTLLLEPSVINTLDKIKQANVILHGIGDALKMAHRRQSPEKVIEQLQHHQAVGEAFGYYFDTQGQIVHKVKTIGLQLEDLESKDFIFAVAGGKSKGEAIKAYLTIAPKNTVLITDEAAAKIILE | not soluble
12 | GPGSMGQVGGTATSGRGLTALQVAAALRVTAAARLKQAEAAVSSSQAMHSAHCSIAEQSKAIKPEDCSAVQRLTVPSTDHKGKHVEVRVTEYAPDVFSFLRQLKGVTDPQFADEWSLPENRLKMEMGEGRSQALFLKSKTMLLMCKTISVEEVHALLHVLRAYTLHITAHPSSLLMRFYMLLKVSVRSEEGYILCFNDVFGTASVLHEKWDIKGRVPKNGKHLHYPHLIGSGYEPDPHATKPPPKRHVLANPAIDASQQHPGRESAVVVRGTKDAQGLPTLHDKDLTRLFWVPRTARKRLVEELLRDYDFLKNAGMMDYSLLIGVAYQDDKTRPSDKHCGIESTNVTSSSAVAPASTSAEARPASLAQDSHPSGTRTMLTTVPEFANGVRSFDGQEMYYIGVIDVLTTYTLKKKSANFFKSLLWKQKTLSTIPPDRYAQRIASFTELIFPDVKEEANGG | not soluble
13 | NIILQEDNAQLDEVVVVGYGTMKKKDLTGSVTAVKGDELAARRTTQLSTALQGALSGVMVSRDNGAPGSSASIQIRGVTTIGDSSPLVIIDGIPGDINSVNPEDVESMSVLKDAASASIYGSRAAAGVIVITTKRAKSGD | not soluble
14 | MSLHNRFSLAQTLVTTVEAESGTRAGGLTIATANAGYSGTGYITNMTSAADKLTIPVTVPSAGNYQLVIRYNGPYGPKDQDIYVNGVFVSSLHFPETTGYTDLTAGSLTLNAGANTIGIYKNWGYTDFDKISLFTVPLHDYSTVAPNLIDANATPEAKALYNYIKAGYGTRIISGQTSDYYNTVSPNAAKKPVIRAYDFQHYTVGYSYLWNNATASHTFGWEDDGTTQAAIDWYNSTCQKGMVAFHWHWHSPSGGQAGTNTFYTNSTAFDVTKAVTQGTPEYTAVIRDIDSIATQLKRLQAAGVPVLWRPLHEAGGAWFWWGAKGPAAALALYDMVYNRIVNYHNIHNLIWQWSTPEANWYPGNSKVDMLGYDSYPGAYNYGTQKLIFDQLYTIVNGQKILAMTENGPIPDPDLCFSSDAKWAYVMSWSDLVTQQNSSAQLNLVYNHAKVLTLDEVTTATNTAQLTAEGHHHHHH | soluble
15 | GSHMFMPSDRSTERCETVLEGETISCFVVGGEKRLCLPQILNSVLRDFSLQQINAVCDELHIYCSRCTADQLEILKVMGILPFSAPSCGLITKTDAERLCNALLYG | soluble
16 | GPLGSGGGTIAMLNEISSDTLEQLYSLAFNQYQSGKYEDAHKVFQALCVLDHYDSRFFLGLGACRQAMGQYDLAIHSYEEGAVMDIKEPRFPFHAAECLLQKGELAEAESGLFLAQELIANKPEFKELSTRVSSMLEAIKLKKEMKHE | soluble
17 | MEKQVRVRYAPSPTGHLHIGNARTALFNYLFARHQDGKFIIRIEDTDVKRNVAGGEESQLKYLKWLGMDWDEGVDVGGEFGPYRQTERLDIYKKLYEDLLERGLAYKCYMTEEELEAEREGQIARGETPRYAGNHRDLTEAQVKEFEAEGRIPSIRFRVPADRDYTFKDIVKDEVAFHSNDFGDFVIVKKDGIPTYNFAVAVDDHLMEITHVLRGDDHISNTPKQMMIYEAFGWDIPQFGHMTLIVNESRKKLSKRDESIIQFIEQYKELGYLPEAIFNFIALLGWSPVGEEEIFSQEEFIKMFDAARLSKSPALFDSQKLKWMNNQYMKKQDLDTVVELSLPHLVKAGRIGETLSEQEQAWIRDVIALYHEQMSFGAEIVELSEMFFKDHVDYEEEGQEVLKGEQVPEVLRAFAGQVEALEAMEPAAIKAAIKAVQKETGHKGKNLFMPIRVATTGQTHGPELPNAIALLGKEKVLNRLQKVIG | soluble
